Values of other authors in paper PMC3767571.

Target: Sortilin (Homo sapiens) (UniProt Q99523)
Sequence of UniProt Q99523 (Q99523 78-755): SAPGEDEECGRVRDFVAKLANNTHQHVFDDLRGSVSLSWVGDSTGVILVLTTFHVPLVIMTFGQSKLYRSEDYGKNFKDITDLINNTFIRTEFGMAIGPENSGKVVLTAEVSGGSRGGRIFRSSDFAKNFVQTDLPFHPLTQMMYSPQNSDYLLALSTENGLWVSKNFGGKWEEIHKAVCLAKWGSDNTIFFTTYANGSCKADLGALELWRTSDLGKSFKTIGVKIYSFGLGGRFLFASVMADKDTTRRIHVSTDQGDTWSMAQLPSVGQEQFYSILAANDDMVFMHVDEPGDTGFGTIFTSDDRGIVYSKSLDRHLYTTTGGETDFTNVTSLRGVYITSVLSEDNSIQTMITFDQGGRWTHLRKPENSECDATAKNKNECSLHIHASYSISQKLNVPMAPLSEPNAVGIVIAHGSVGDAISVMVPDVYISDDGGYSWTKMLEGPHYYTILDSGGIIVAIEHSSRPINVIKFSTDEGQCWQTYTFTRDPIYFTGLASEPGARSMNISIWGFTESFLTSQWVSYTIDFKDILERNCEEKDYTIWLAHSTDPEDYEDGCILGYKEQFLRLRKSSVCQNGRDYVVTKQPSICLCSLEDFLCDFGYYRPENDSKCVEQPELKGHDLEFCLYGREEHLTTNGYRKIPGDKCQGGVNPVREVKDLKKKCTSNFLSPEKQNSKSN

Q: Which Kd does the source give for Progranulin (from UniProt P28799) here?
A: 11 nM
